Experimental data: the DeepSol protein solubility set

Test: soluble on expression in E. coli; label from the status in PepcDB or PDB records

Soluble on expression in E. coli, soluble:
MNKPENFEEAIEIKRDPEDFSVEEIADIEPDPNGKYTIIKARVRDWDTNRIAAEIARRLHMSRKRVTFAGTKDKRAVKLQYFCINSADVDVASLSGIKDFEVIESFKSSHYLTLGDLIANHFKIRFYGIDPEMFRERYVHIISKGGFPNFFGDQRFGSRRRNTHEIGKLIIKGEYEEAVKKYIYDEKYDKESYRKHFIDTLDYKTALERFPHSLSFERSLIGYYARNGTFKGAFDSLPKNLTIMFVHAYQSYLFNRILDERLKIYGLNAVLPGDIAFPVDAYFNPDKSKPIEVNSYNREKISKLVSSDKIRISLPIFGYKTWIDNSDFGDVEYGILKEEGISQDDFKNKDFAYLSSSGDRRIISAKPINFSLENNVVEFTLGKGIYATVFLSSIGRLKENVYSDSEAELLEHHHHHH
GSHMQQWVDCEFTGRDFRDEDLSRLHTERAMFSECDFSGVNLAESQHRGSAFRNCTFERTTLWHSTFAQCSMLGSVFVACRLRPLTLDDVDFTLAVLGGNDLRGLNLTGCRLRETSLVDTDLRKCVLRGADLSGARTTGARLDDADLRGATVDPVLWRTASLVGARVDVDQAVAFAAAHGLCLAGG
MSLEDNERVDHLIKEGYEIIQNDEVFSFSTDALLLGYLTEVRKNDKVMDLCSGNGVIPLLLAAKSTQPIEGIEIQEQLVSMARRSFKLNDLNDRLTMHHMDLKDVYQTFQPAQYTLVTCNPPYFKMNQNHQHQKEAHKIARHEIMCNLKDCIEAARHLLKEGGRFIMVHRAERLMDVLTELRHGKIEPKALTLVYSKHDKPAQTIVVEGRKGGNQGLDIRNPLYIYNEDGSYSDEMKGVYYGEGHHHHHH
AIANSRAADQLELDGLPGTPPDFYRERQRSRVERYQSPAGAPLQCSVQVQTTQEHPLWTSHVWSGARALADTLCWQPELIAGKTVCELGAGAGLVSIVAFLAGADQVVATDYPDPEILNSLESNIREHTANSCSSETVKRASPKVVPYRWGDSPDSLQRCTGLQRFQVVLLADLLSFHQAHDALLRSVKMLLALPANDPTAVALVTFTHHRPHLAERDLAFFRLVNADGALIAEPWLSPLQMDPMFPDDPGDVCIRGQVHRWRLRWRSAASASANIPAHARNE
MLRISRDLVIDEDDIEIGFVRASGPGGQNVNKVATSAQLRFDTRKLTLPEDATIRLARIAGQRMTKDGVIVIHAQRFRTQERNRQDAIDRLVEILSEAMIRPKPRRATRPTFGSKQRRLEGKKRRSDVKAGRGRSFDDLEHHHHHH
MDRQGFVPAAYVKKLDSGTGKELVLALYDYQEKSPREVTMKKGDILTLLNSTNKDWWKVEVN

Soluble on expression in E. coli, not soluble:
IDRMDRFALRFRALQNQYEQHKSPMRGLCGMRAGLIPHQLFIAHEVGRRYAPRVLLADEVGLGKTIEAGMIIHQQVLSGRAERVLIVVPETLQHQWLVEMMRRFNLHFSIFDEERCVEAYADSENPFDTAQFVLCSLDFIRKSKRRFEQVVEADWDLLVVDEAHHLEWNQTKPSREYQVIEAIAEETPGVLLLTATPE
MGSDKIHHHHHHMKIVHTADWHLGKILNGKQLLEDQKYILTQFKQHMEKEQPDLIVIAGDLYDTSYPSKEAIGLLEETIEYLNIELKIPIIMISGNHDGRERLNYGSKWFENNQLYIRTQLENIDDPIELSGVQFFTLPFATVSEVQNYFKDKQIETYQQALNECLEQMSSSIDNNKVNILIGHLTIEGGKTSDSERPLTIGTVESVDMHSFRLFDYVMLGHLHHPFSINNSFIKYSGSILQYSFSEVNQSKGYRVLDIENNQLLNETFVPLKPLRELEVIEGDYEDIIQERIKVKNKNNYFHFKLTNVSHITDPMMKLKQIYPNILALSNVVFDHSENFSHVEIKKQDDQTIIENFYKNMTDQHLSQVQSDKIKHLLSFILDREG
MGSDKIHHHHHHMENKEVIIIGAGAAGVGMGVALKDFGINNFAILERKQVGNSFIKWPEQTRFITPSFTSNGFGMPDLNAIAIDTSPSYTLGEERLSGKDYAKYLQLVSEEYKLPIKTNCKVQSIKKEKTGYLLETTKGFIYAEYVIFAMGEFSFPNKSSIKGAYKNSLHYGEINSWIEIKGDKQTIIGGNESAIDAAIELAKLGKRVTIYTDTLGLNIRDADPSKRLAPRTRQRFFDLRVNQKKLDSIKIYTTTKVKKIEKKSTSYILITENGKSLPVENIPILCTGFKNGTKSITASLFKYKENGEVLLNDFDESTIAKNIFLTGPNVRKGNTIFCYIYKFRQRFAVIANEIARRKHITIDEKKLSYYKNQSFYLDGCSGCEVRCSC
VLEQAVYNARVMDIRDIEKESQEQAPEVEMVSELGSDVVVLDIRSAEEEDEKPLELDGVEVTHIPFFKLATKFGDLDQSKEYLLYCERGVMSRLQALLLIENGYKNVKVYRP
MGSDKIHHHHHHMLTKTIIGLDVGRSAVKVVAFANGLYYRLTFPSLVSPAFPINDEGTAARAELETVEVLGKRYFTGDTARLQGGVNMSVGLSHDWTNGPEYLALVASTMKRLAALGVPGLDSPYIVLGTPASLFGRQKEALAQRTQAVVAAEMKVLPQPMGAYCNFFMDARGVPIKDRQKRPDGKNRSWAVVEVGHYTTDFLLMREGNYIERAAVSCEGVHFAAENLVRILAAKDIQATPLTAEEALRTGVIVDFGERRIEAQVAEAVDHVVQKIMTMADSVLSNDVRSLDGVLLAGGGAPILAAGLQKKWPHTVLLENPRMAVADGFCRYGVGQMLRRAMAAEKATA
MGSDKIHHHHHHMDSVDLEVLRSSVRWQQEGHRVLLVTVVRTWGSSPRPEGAMLAVRDDGLVVGSVSGGCIEDDLIDRVRRLGITADHPESVKYGISAEEAHRFGLPCGGTIELVTEPLKPASGIAELLDAVENGRLATRTLDMATGTATLGPAEATDGLVFDGNSLLTIHGPRYRMLVIGAGQLSKYLCQIAVGLGFQVTVCDPREEYTETWDIPGVTMVRTMPDDTVTDMKLDERCAVIALTHDPKLDDLALMEALRTRAFYVGALGSRRNNQARRERLKEFDLNDVQLARLHGPVGIFIGSRTPPEIAISILAEVVAAKNHVSLPDILQVEGAKAARELAAGTGSSCDT
MDKRYLESDVFEAFQERLSYLFNEFDYIYVSFSGGKDSGLLLNLVLDYKRKNNISSKIGVFHQDFEAQYSLTTEYVEKVFEDNIEDIEPYWVCLPMATRTAVGNYEMYWYPWDDEKEELWVREMPVKEYIINQKNNPFTYYKYKMRQESLAKQFGRWIRDIHEGAKVVCLLGTRAAESLQRYCSIVNKQHGYKGKCWITKEFKNVWTASPIYDWEIEDIWLAHYKFDYDYNKIYDLFYK
MRAGIYRRSAGQGAEEKPEAVRAGHRGGGERHHDHAHHDGEGEFVVREELLHGRSVRFRRRSERIDEHEHRQRDRGHAQPGADRGAPGRQRATTGDNVCDGTPGSPHRRVRRRRPAPAA
MGSDKIHHHHHHMNILFINSIGRNKFGGGEKWMVNAAKGLTDRGHNVVLASKRNSRLLDYAAGSGVRTEVMEIRGDFSPLATLKIAAWMKRHQTDILICNLNKDVRVAGLAARLVGRPVVLARHGMLLCSKKWKHKLSLTRLTDGIVTNSRTIREAYAGYGWFSENFVKVIYNGLTIPAEVTAFDFASRYPGKKIIYSAGRLSKQKGFEYLIDAAAMLKRKRDDLLFAISGEGKLEIELKNRVAALGLKGSFVFLGFTPDIYPFLKGCDLFVLASLFEGMPNVVMEAMAMQKPVIATDVNGARELMGASPESLVCDTGLIIPPKNPAAIAEAIEQIIDNPALLEAYGKAGHQRVETHFTVPIMIDNLEKHLQSKLAEKAGRC
MSLVINAPFKVIASKVTAEVLKSVNSKLGSYSTNYATSSEARATNVAVATRSIDGKVVMPGETFSFNEVVGERTRARGYKEAGVIVNQKLESGFGGGVCQVSSTLYNALLRSNIKMTERVHHTFPSSYVPTGLDATVDWGNIDLKFKNTFKYPIYIQGYTGGREVGFNIYSNSELAREGHHHHHH
